Laboratory results as given in patent US20200255474A1.

Molecular target: HA-tagged PHB2 alanine mutant at Ser39 (S39A) (human) (UniProt Q99623)
Test: anti-HA IP of nuclear extracts of transfected SK-BR-3 cells after 1 µM stERAP, immunoblot

**Q.** How did the reduction rate of binding against WT turn out when NcoR, O75376 1-2440 was run?
**A.** 82%
